# Laboratory results published in US20190055314A1 (ADAGENE, published 2019).
# Substitutions are numbered along the chain they refer to.
# B1: Fab 7077 (Fab, V domains shown)
# VH: EVQLVESGGGLVQPGGSLRLSCAASGFSLSTGGVGVAWIRQAPGKGLEWVSYISGSGDTTYYADSVKGRFTISRDNSKNTLYLQLNSLRAEDTAVYYCAREGSDTVVGDWFAYWGQGTLVTVSS
# VL: DIQLTQSPSSLSASVGDRVTITCRASQGISSYLAWYQQKPGKAPKLLIYDASNLETGVPSRFSGSGSGTDFTLTISSLQPEDFATYYCQQYYTTPLTFGQGTKVEIKR
# notes: Fab from E. coli; also called VH40/VL40
# B2: Fab 4079 (Fab, V domains shown)
# VH: EVQLVESGGGLVQPGGSLRLSCAASGFTFTGYWIHWVRQAPGKGLEWVGRIRSKTDGYTTEYAAPVKGRFTISRDNSKNTLYLQLNSLRAEDTAVYYCARLGGHWYFDVWGQGTLVTVSS
# VL: B1 VL with G28S, S30G, S31R, A34N, Q89E, Y91P, Y92L, T93E, T94L, L96R
# notes: Fab from E. coli; also called VH5/VL5
# B3: Fab 7097 (Fab, V domains shown)
# VH: EVQLVESGGGLVQPGGSLRLSCAASGYSISSGHHWDWIRQAPGKGLEWVSYISGAGDTTYYADSVKGRFTISRDNSKNTLYLQLNSLRAEDTAVYYCAREGSDAVLGDWFAYWGQGTLVTVSS
# VL: B1 VL with T93S
# notes: Fab from E. coli; also called VH49/VL49
# B4: Fab 7159 (Fab, V domains shown)
# VH: EVQLVESGGGLVQPGGSLRLSCAASGFSLSTSGVGVGWIRQAPGKGLEWIGDIYHSGSTYYNPSLKSRVTISRDNSKNTLYLQLNSLRAEDTAVYYCAREGSTAVLGDWFAYWGQGTLVTVSS
# VL: B1 VL with G28S, A34N, D50A, N53T, E55Q, T56S, T93S
# notes: Fab from E. coli; also called VH58/VL58
# B5: Fab 7109 (Fab, V domains shown)
# VH: B1 VH with G32S, A37S, T105A, V107L
# VL: B1 VL with T93S
# notes: Fab from E. coli; also called VH52/VL52
# B6: Fab 7133 (Fab, V domains shown)
# VH: B1 VH with G32S, Y52S, S56Y, D58G, T80R, V107L
# VL: B1 VL with I29V
# notes: Fab from E. coli; also called VH56/VL56
# B7: Fab 7131 (Fab, V domains shown)
# VH: B1 VH with A37G, S56A, T59S, V107L
# VL: B1 VL with I29V
# notes: Fab from E. coli; also called VH55/VL55
# B8: Fab 7128 (Fab, V domains shown)
# VH: B1 VH with S56D, D58G, V107L
# VL: B1 VL with Y91S, T93S
# notes: Fab from E. coli; also called VH54/VL54
# B9: Fab 7090 (Fab, V domains shown)
# VH: B1 VH with S56Y, D58G, D104T, T105A, V107L
# VL: B1 VL with T93S
# notes: Fab from E. coli; also called VH47/VL47
# B10: Fab 7120 (Fab, V domains shown)
# VH: B1 VH with G32S, A37G, S56D, D104T, V107L
# VL: B1 VL with T93S
# notes: Fab from E. coli; also called VH53/VL53
# B11: Fab 7079 (Fab, V domains shown)
# VH: B1 VH with G32S, Y52S, S56Y, D58G, V107L
# VL: B1 VL
# notes: Fab from E. coli; also called VH42/VL42
# B12: Fab 7163 (Fab, V domains shown)
# VH: B4 VH with G37T, G46S, N62S, T103D, L106A, A111D
# VL: B1 VL with G28S, A34N, D50A, N53T, E55Q, T56S, T93S
# notes: Fab from E. coli; also called VH59/VL59
# B13: Fab 7078 (Fab, V domains shown)
# VH: B1 VH with A37G, S56D, V107A
# VL: B1 VL
# notes: Fab from E. coli; also called VH41/VL41
# B14: Fab 7135 (Fab, V domains shown)
# VH: B1 VH with A37G, Y52S, D58G, T59S, V107L
# VL: B1 VL with I29V
# notes: Fab from E. coli; also called VH57/VL57
# B15: Fab 7166 (Fab, V domains shown)
# VH: B4 VH with G35A, G37A, S58N, E100G, T103D, A104T, L106V
# VL: B1 VL with G28S, A34N, D50A, N53T, E55Q, T56S, T93S
# notes: Fab from E. coli; also called VH60/VL60
# B16: Fab 7092 (Fab, V domains shown)
# VH: B1 VH with G32S, V34M, A37G, S56Y, D58G, T105V, V107A
# VL: B1 VL with T93S
# notes: Fab from E. coli; also called VH48/VL48
# B17: Fab 7087 (Fab, V domains shown)
# VH: B1 VH with A37G, S56D, D104T, T105A, V107L
# VL: B1 VL
# notes: Fab from E. coli; also called VH45/VL45
# B18: Fab 7105 (Fab, V domains shown)
# VH: B1 VH with A37G, S56A, D58S, V107L
# VL: B1 VL with T93S
# notes: Fab from E. coli; also called VH51/VL51
# B19: Fab 7100 (Fab, V domains shown)
# VH: B1 VH with G32S, A37G, S56D, D58G, T59S, V107L
# VL: B1 VL with T93S
# notes: Fab from E. coli; also called VH50/VL50
# B20: Fab 7081 (Fab, V domains shown)
# VH: B1 VH with A37G, S56A, D58G, T105A, V107L
# VL: B1 VL
# notes: Fab from E. coli; also called VH44/VL44
# B21: Fab 7088 (Fab, V domains shown)
# VH: B1 VH with G32S, A37G, S56D, D58G, T59S, D104T, T105A
# VL: B1 VL
# notes: Fab from E. coli; also called VH46/VL46
# B22: Fab 4134 (Fab, V domains shown)
# VH: EVQLVESGGGLVQPGGSLRLSCAASGYSISSGHHWGWIRQAPGKGLEWVSGISGYGDTTYYADSVKGRFTISRDNSKNTLYLQLNSLRAEDTAVYYCARDPYSSGSGYFDYWGQGTLVTVSS
# VL: DIQLTQSPSSLSASVGDRVTITCRASQGISSALGWYQQKPGKAPKLLIYAASSLQSGVPSRFSGSGSGTDFTLTISSLQPEDFATYYCQQSYYTWTFGQGTKVEIKR
# notes: Fab from E. coli; also called VH6/VL6
# B23: Fab 4137 (Fab, V domains shown)
# VH: EVQLVESGGGLVQPGGSLRLSCAASGYSITSGYYWGWIRQAPGKGLEWVSGISGSGSSTYYADSVKGRFTISRDNSKNTLYLQLNSLRAEDTAVYYCARGTYSFDVWGQGTLVTVSS
# VL: B22 VL with A32D, G34A, S53T, S91Y, Y93S, T94Y, W95I
# notes: Fab from E. coli; also called VH7/VL7
# Biological target: T1, CD137-hisFc fusion protein (Sino Biological Cat 10041-H03H) (human, UniProt Q07011 24-186)
# T1 construct: Bought; also called recombinant human CD137 (fused with human Fc and His tag); not shown: His tag and human Fc
# Assay: BLI Octet, Fab
# Protocol: The Fabs corresponding to the unique hits were expressed in E. coli and purified. Their affinities against human CD137 were measured by ForteBio Octet RED96 Systems. […] The acquired ForteBio data were processed with Data Acquisition software 7.1, and kinetic data were fitted to a 1:1 Langmuir binding model.
Kd,koff,kon,Binder
18.8 nM,0.00934 s⁻¹,498000 M⁻¹ s⁻¹,B1
31.5 nM,0.00219 s⁻¹,69300 M⁻¹ s⁻¹,B2
24.3 nM,0.0132 s⁻¹,542000 M⁻¹ s⁻¹,B3
37.9 nM,0.00403 s⁻¹,106000 M⁻¹ s⁻¹,B4
32 nM,0.00555 s⁻¹,173000 M⁻¹ s⁻¹,B5
40.3 nM,0.00405 s⁻¹,101000 M⁻¹ s⁻¹,B6
30.4 nM,0.0081 s⁻¹,266000 M⁻¹ s⁻¹,B7
39.7 nM,0.0123 s⁻¹,309000 M⁻¹ s⁻¹,B8
55.5 nM,0.0173 s⁻¹,312000 M⁻¹ s⁻¹,B9
34.5 nM,0.00911 s⁻¹,264000 M⁻¹ s⁻¹,B10
29.9 nM,0.003 s⁻¹,100000 M⁻¹ s⁻¹,B11
12.6 nM,0.00378 s⁻¹,299000 M⁻¹ s⁻¹,B12
25.2 nM,0.0087 s⁻¹,345000 M⁻¹ s⁻¹,B13
31.7 nM,0.00322 s⁻¹,102000 M⁻¹ s⁻¹,B14
12.4 nM,0.00429 s⁻¹,345000 M⁻¹ s⁻¹,B15
45.7 nM,0.0197 s⁻¹,431000 M⁻¹ s⁻¹,B16
69.6 nM,0.00855 s⁻¹,123000 M⁻¹ s⁻¹,B17
33.3 nM,0.011 s⁻¹,330000 M⁻¹ s⁻¹,B18
35 nM,0.0162 s⁻¹,462000 M⁻¹ s⁻¹,B19
43.1 nM,0.0123 s⁻¹,287000 M⁻¹ s⁻¹,B20
43.6 nM,0.0111 s⁻¹,255000 M⁻¹ s⁻¹,B21
13 nM,0.000769 s⁻¹,59300 M⁻¹ s⁻¹,B22
< 0.001 nM,< 1e-07 s⁻¹,85600 M⁻¹ s⁻¹,B23
